According to the supplement of paper PMC9170038:

System: MS2 coat protein
Assay: apparent KD of MS2 coat protein; designed switch direction (-1 OFF switch, 1 ON switch): 1; higher = weaker reporter binding
Summary of the method: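 Apparent KD, taken as the median over clusters for each design, was obtained by curve-fitting normalised cluster fluorescence. Designed RNA switches had been transcribed on Illumina chips by stalled E. coli RNA polymerase and titrated with SNAP-549-labelled MS2 coat protein, doubling from 0.7 or 1.5 nM to 3 µM.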

[1] = input ligand: microRNA oligo, concentration not stated
[2] = Eterna round: R95, input ligand: FMN 200 uM
[3] = Eterna round: R95, input ligand: microRNA oligo, concentration not stated
[4] = Eterna round: R95, input ligand: none

Sequence | apparent KD of MS2 coat protein (input ligand: FMN 200 uM) [nM] | apparent KD of MS2 coat protein [1] [nM] | apparent KD of MS2 coat protein (input ligand: none) [nM] | apparent KD of MS2 coat protein [2] [nM] | apparent KD of MS2 coat protein [3] [nM] | apparent KD of MS2 coat protein [4] [nM]
GGCCAGAGUCAAGGAUAUGCUACCGUUUCGGUAGCAGAAGGUGAUCACAUGAGGAUCACCCAUGUUUACUGGGAGACCAUGGCC [JL SSNG1 3.69] (Eterna round: R96, puzzle: Same State NG 1) | 219 | 136 | 112 | – | – | –
GGCCUGAGUCAAGGAUAUGCUACCGUUUCGGUAGCAGAAGGUGAUCACAUGAGGAUCACCCAUGUUUACGGGAAGACCCGCGCC (Eterna round: R96, puzzle: Same State NG 1) | 1470 | 141 | 489 | – | – | –
GGCGAAGGAGAAGGAUAUAUCUUGGACAUAUAGAUGCACAUGAGGAUCACCCAUGUCAUCAUGGGAUAGAAGGUCUGCUUCACC [Eternabot solution 33] (Eterna round: R96, puzzle: Same State NG 2) | 13.2 | 10.3 | 14.2 | – | – | –
GGCGGAUCCACAUGAGGAUCACCCAUGUAGCGGAGACGCAAUGAGGAUAUCGAUGGGUUUCCCGUCGAGAAGGCAUAAACCGCC [JL SSNG3 3.93 mod 2] (Eterna round: R96, puzzle: Same State NG 3) | 17.8 | 14.9 | 16 | – | – | –
GGCGGCCUGGGAGGAUAUCGGGCCCUUUGGGCCCGAGAAGGUCCGGAGCCUCUGACAUGAGGAUCACCCAUGUAGGCUGCUGCC [first try] (Eterna round: R96, puzzle: Same State NG 1) | 45.4 | 186 | 154 | – | – | –
GGCGUAUAAACAUGAGGAUCACCCAUGUAGCGGAGACGCAAUGAGGAUAUCGAUGGGUUUCCCGUCGAGAAGGCGUGGGUCGCC [JL SSNG3 3.94] (Eterna round: R96, puzzle: Same State NG 3) | 20.6 | 20.6 | 29 | – | – | –
GGCUAUCGCGUACGAUAGCUGAAGCAUGUACAUGAGGAUCACCCAUGUCAUGUACAAGCUUUUUGCUCGUCUUAUUG [JL-shm-2.32 JL mod] (puzzle: Sensor for hsa-mir-208a) | – | – | – | 243 | 13.9 | 348
GGCUAUCGCGUACGAUAGCUUAAGCGUGUACAUGAGGAUCACCCAUGUCAUGUACAAGCUUUUUGCUCGUCUUAUUG [JL-shm-2.34 JL mod] (puzzle: Sensor for hsa-mir-208a) | – | – | – | 195 | 19.4 | 493
GGGAGAGACGGAGGAUAUGGAGGGAGAUAGAGACUAGAAGGUUGGACAUGAGAAUCGAACAUGAGGAUCACCCAUGUUGGGAGG [iteri-2] (Eterna round: R96, puzzle: Same State NG 1) | 61.5 | 33.7 | 56.7 | – | – | –
GGGAGAGGCGCAGGAUAUGGUGAGGAUCACCCACUAGAAGGGUGCACAUGAGAAUCGAACAUGAGGAUCACCCAUGUUCUGAGC (Eterna round: R96, puzzle: Same State NG 1) | 560 | 162 | 348 | – | – | –
GGGAGAGGUACAGGAUAUGGUGAGGAUCACCCACUAGAAGGGUGCACAUGUGAAUCGGACAUGAGGAUCACCCAUGUUUGGCGU (Eterna round: R96, puzzle: Same State NG 1) | 86.7 | 74.8 | 133 | – | – | –
GGGCCACAUGAGGAUCACCCAUGUGGAGCUAGUGCACGGUCACAGGAUAUCUCGUGGGCGUAUAGGGAGAAGGGUGAUUCAUUA [Eternabot solution 18] (Eterna round: R96, puzzle: Same State NG 3) | 47.2 | 51.3 | 52.3 | – | – | –
GGUAAGAAUUAAGGAUAUCGAGUACAUAUGUUUAACAUGAGGAUCACCCAUGUGGGUUGCGGUAUCGAGAAGGUAAAAUAAAAG [Mat - same State NG 2 - JL mod - D65] (Eterna round: R96, puzzle: Same State NG 2) | 53 | 29.2 | 36.2 | – | – | –
GGUAAGAAUUAAGGAUAUCGAGUACAUAUGUUUAACAUGAGGAUCACCCAUGUGGGUUGCGGUAUCGAGAAGGUAAAUUACAAG [Mat - same State NG 2 - JL mod - D62] (Eterna round: R96, puzzle: Same State NG 2) | 40.7 | 35.7 | 41.8 | – | – | –
GGUAGGUUACUACCAAACAACAUGAGGAUCACCCAUGUGUGGAAGGAUAUGGUACCUAUUUGGUACCAGAAGGUCCAAUUAAUU [Fiskers NG3ss - 4] (Eterna round: R96, puzzle: Same State NG 3) | 72.3 | 36.4 | 63.1 | – | – | –
GGUAGGUUACUACCAAACAUGAGGAUCACCCAUGUUAAUGGGAAGGAUAUGGUACCUAUUUGGUACCAGAAGGUCCAAUUAAUU [JL Fiskers NG3ss - 2 mod 4] (Eterna round: R96, puzzle: Same State NG 3) | 70.4 | 520 | 493 | – | – | –
GGUAGGUUACUACCAAACUACAUGAGGAUCACCCAUGUGUGGAAGGAUAUGGUACCUAUUUGGUACCAGAAGGUCCAAUUAAUU [Fiskers NG3ss - 5] (Eterna round: R96, puzzle: Same State NG 3) | 125 | 108 | 122 | – | – | –
GGUAGGUUACUACCAGACAUGAGGAUCACCCAUGUAAAUGGGAAGGAUAUGGUACCGUUUCGGUACCAGAAGGUCCUAAAUGAG [JL SSNG3 1.47] (Eterna round: R96, puzzle: Same State NG 3) | 301 | 644 | 1750 | – | – | –
GGUCAGACUCACAUGAGGAUCACCCAUGUACCGGAAACGGCACAGGAUAUCUGUCCGAAAAGGUCAGAGAAGGGUGUACUGACC [Fiskers NG3ss - 53] (Eterna round: R96, puzzle: Same State NG 3) | 277 | 22.9 | 82 | – | – | –
GGUCCAGCCUGAGCUGGACAAAAGCAUGUACAUGAGGAUCACCCAUGUCAUGUACAAGCUUUUUGCUCGUCAGAAAG [Mat - hsa-mir-208a - 98] (puzzle: Sensor for hsa-mir-208a) | – | – | – | 62.7 | 16.9 | 89.8
GGUCCAGCCUGAGCUGGACAAAAGCAUGUACAUGAGGAUCACCCAUGUCAUGUACAAGCUUUUUGCUCGUCAUAAUU [Mat - hsa-mir-208a - 100] (puzzle: Sensor for hsa-mir-208a) | – | – | – | 495 | 16 | 489
GGUCCAGCCUGAGCUGGACAAAAGCAUGUACAUGAGGAUCACCCAUGUCAUGUACAGGCUUUUUGCUCGUCUUAAAA [JL mod - D87 - 7] (puzzle: Sensor for hsa-mir-208a) | – | – | – | 622 | 16.1 | 825
GGUCCAGCCUGAGCUGGACAAAAGCAUGUACAUGAGGAUCACCCAUGUCAUGUGCAAGCUUUUUGCUCGUCUUAAAA [JL mod - D87 - 4] (puzzle: Sensor for hsa-mir-208a) | – | – | – | 67.3 | 11 | 73.4
GGUCCAGCCUGAGCUGGACAAAAGCAUGUACAUGAGGAUCACCCAUGUUCAUGUACAAGCUUUUUGCUCGUCUUAGA [salish99_208a_r3_068] (puzzle: Sensor for hsa-mir-208a) | – | – | – | 629 | 15.5 | 747
GGUCCAGCCUGAGCUGGACAAAAGCAUGUACAUGAGGAUCACCCAUGUUCAUGUACAAGCUUUUUGCUCGUCUUAGU [salish99_208a_r3_069] (puzzle: Sensor for hsa-mir-208a) | – | – | – | 536 | 16.3 | 730
GGUCCAGCCUGAGCUGGACGAUAGUAUGUACAUGAGGAUCACCCAUGUCAUGUAUAAGUAUUUUGUUUGUCUUGAAA [Sensorship 3 - Jieux - Sensor for hsa-mir-208a] (puzzle: Sensor for hsa-mir-208a) | – | – | – | 22.1 | 14.7 | 19.3
GGUCCAGCCUGAGCUGGACUACAGCAUGUACAUGAGGAUCACCCAUGUCAUGUACAAGUAUGUUGUUUGUCUUAAAA [Sensorship 7 - Jieux - Sensor for hsa-mir-208a] (puzzle: Sensor for hsa-mir-208a) | – | – | – | 80.8 | 37.5 | 108
